Data from patent US20190359693A1.

Target: hemagglutinin (HA) of influenza A/Env/MPJ193/09 (H3N?) (influenza A virus)
Assay: cell-based or functional assay

Work on MD3606 (Fc fusion) yielded an Average neutralization titers of 11.8 nM.
